Columns and labels:
Test in all cases: staining of transfected COS-7 cells, FACS
[1] = target: T1, human gc chain mutant, FNV replaced by Ala (Domain 1 Loop AB), myc-tagged, on COS-7 cells (human, UniProt P31785 23-369)
T1 construct: whole, on cells; not shown: 9 amino acid myc tag at the 5' end of the construct
T1 sequence (looked up): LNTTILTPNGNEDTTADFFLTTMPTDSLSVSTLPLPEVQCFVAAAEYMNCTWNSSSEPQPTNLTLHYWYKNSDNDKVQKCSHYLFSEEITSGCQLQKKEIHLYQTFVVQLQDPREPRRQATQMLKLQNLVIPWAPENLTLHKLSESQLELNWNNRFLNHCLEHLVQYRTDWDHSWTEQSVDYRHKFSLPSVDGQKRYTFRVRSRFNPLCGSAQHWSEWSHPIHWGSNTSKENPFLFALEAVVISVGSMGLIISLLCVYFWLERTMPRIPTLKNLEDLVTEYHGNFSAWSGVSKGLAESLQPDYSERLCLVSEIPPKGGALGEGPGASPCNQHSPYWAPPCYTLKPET
Description: (§1) COS-7 cells are transiently transfected with 20 ug of DNA encoding the gc chain mutant or wildtype cDNA and 180 ug of herring sperm carrier DNA. After 2-3 days, COS-7 cells are harvested and analyzed by immnunofluorescent staining with anti-gc chain mAbs. MAbs are used at 10 ug/ml in PBS-1% BSA-0.02% sodium azide and allowed 30 minutes to bind to 1×10⁶ COS-7 cells. Cells are then washed 2 times, and bound mAb is detected with PE-conjugated goat anti-mouse Fc specific antibodies. The % of positive cells staining with the anti-gc chain mAb over an irrelevant control Ig is determined for a given gc chain mutant and for wildtype gc chain. […] Data are adjusted for any differences in level of expression of a mutant vs. wildtype constructs by measuring the binding of a mAb specific for a 9 amino acid myc tag engineered at the 5′ end of each gc chain construct. […] Values reduced from 100% indicate amino acid mutations which affect mAb binding.
(§2) The value “100%” indicates no effect of mutation and lower percentages indicate greater losses in binding as a result of the sequence change.

[2] = target: T2, human gc chain mutant, RFL replaced by Ala (Domain 2 Loop BC), myc-tagged, on COS-7 cells (human, UniProt P31785 23-369)
T2 construct: whole, on cells; not shown: 9 amino acid myc tag at the 5' end of the construct
T2 sequence (looked up): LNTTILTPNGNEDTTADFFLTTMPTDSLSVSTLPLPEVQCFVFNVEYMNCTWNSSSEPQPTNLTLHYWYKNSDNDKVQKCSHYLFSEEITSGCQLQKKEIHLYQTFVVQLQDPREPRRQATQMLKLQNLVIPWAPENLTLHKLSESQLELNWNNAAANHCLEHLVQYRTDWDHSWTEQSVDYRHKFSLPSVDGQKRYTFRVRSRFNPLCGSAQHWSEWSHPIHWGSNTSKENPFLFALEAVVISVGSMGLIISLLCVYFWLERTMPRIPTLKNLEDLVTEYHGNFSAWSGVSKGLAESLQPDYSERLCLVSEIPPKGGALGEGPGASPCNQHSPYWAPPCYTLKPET
Description: as §1, §2

[3] = target: T3, human gc chain mutant, LQN replaced by Ala (interdomain residues), myc-tagged, on COS-7 cells (human, UniProt P31785 23-369)
T3 construct: whole, on cells; not shown: 9 amino acid myc tag at the 5' end of the construct
T3 sequence (looked up): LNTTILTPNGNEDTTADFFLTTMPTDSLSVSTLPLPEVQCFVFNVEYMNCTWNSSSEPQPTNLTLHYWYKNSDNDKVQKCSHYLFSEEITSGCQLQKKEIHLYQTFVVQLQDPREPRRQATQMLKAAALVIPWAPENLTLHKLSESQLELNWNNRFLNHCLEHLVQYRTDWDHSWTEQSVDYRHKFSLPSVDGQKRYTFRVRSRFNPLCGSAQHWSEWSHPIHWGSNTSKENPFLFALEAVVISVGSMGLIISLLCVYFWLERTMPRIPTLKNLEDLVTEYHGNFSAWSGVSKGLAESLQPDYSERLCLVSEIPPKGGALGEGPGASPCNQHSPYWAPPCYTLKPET
Description: as §1, §2

[4] = target: T4, human gc chain mutant, LSE replaced by Ala (Domain 2 Loop AB), myc-tagged, on COS-7 cells (human, UniProt P31785 23-369)
T4 construct: whole, on cells; not shown: 9 amino acid myc tag at the 5' end of the construct
T4 sequence (looked up): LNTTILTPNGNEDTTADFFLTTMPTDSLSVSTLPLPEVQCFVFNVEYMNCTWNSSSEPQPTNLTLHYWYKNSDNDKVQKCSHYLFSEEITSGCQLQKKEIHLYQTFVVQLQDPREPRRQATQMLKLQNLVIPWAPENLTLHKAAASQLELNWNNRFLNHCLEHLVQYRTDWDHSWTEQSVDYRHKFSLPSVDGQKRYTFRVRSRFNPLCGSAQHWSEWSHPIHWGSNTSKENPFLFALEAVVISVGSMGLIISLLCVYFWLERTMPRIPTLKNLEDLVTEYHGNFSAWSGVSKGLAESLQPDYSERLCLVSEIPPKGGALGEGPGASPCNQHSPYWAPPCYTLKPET
Description: as §1, §2

[5] = target: T5, human gc chain mutant, SDN replaced by Ala (Domain 1 Loop CC), myc-tagged, on COS-7 cells (human, UniProt P31785 23-369)
T5 construct: whole, on cells; not shown: 9 amino acid myc tag at the 5' end of the construct
T5 sequence (looked up): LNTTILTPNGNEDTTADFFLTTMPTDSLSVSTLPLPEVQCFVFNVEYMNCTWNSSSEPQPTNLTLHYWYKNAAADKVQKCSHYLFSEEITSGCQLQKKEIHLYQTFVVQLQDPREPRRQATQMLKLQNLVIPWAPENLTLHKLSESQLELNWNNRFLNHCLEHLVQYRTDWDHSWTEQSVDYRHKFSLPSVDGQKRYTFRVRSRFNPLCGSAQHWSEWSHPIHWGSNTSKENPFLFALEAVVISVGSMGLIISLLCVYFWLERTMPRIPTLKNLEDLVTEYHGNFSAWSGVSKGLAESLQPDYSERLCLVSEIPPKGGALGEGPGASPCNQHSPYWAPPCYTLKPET
Description: as §1, §2

[6] = target: T6, human gc chain mutant, NLV replaced by Ala (interdomain residues), myc-tagged, on COS-7 cells (human, UniProt P31785 23-369)
T6 construct: whole, on cells; not shown: 9 amino acid myc tag at the 5' end of the construct
T6 sequence (looked up): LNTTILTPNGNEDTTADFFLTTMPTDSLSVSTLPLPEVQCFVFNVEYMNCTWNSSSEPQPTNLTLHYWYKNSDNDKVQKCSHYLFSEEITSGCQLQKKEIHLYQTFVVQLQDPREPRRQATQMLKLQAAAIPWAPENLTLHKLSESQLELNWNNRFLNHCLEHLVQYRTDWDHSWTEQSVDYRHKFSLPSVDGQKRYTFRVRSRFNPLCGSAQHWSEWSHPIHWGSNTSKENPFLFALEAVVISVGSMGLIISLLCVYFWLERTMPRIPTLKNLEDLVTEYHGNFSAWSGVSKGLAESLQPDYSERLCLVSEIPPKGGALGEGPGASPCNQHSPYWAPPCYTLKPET
Description: as §1, §2

% binding to mutant gc chain/wildtype gc chain [1]: 9%
% binding to mutant gc chain/wildtype gc chain [2]: 89%
% binding to mutant gc chain/wildtype gc chain [3]: 4%
% binding to mutant gc chain/wildtype gc chain [4]: 90%
% binding to mutant gc chain/wildtype gc chain [5]: 68%
% binding to mutant gc chain/wildtype gc chain [6]: 0%
B1: CP.B8 monoclonal antibody (murine anti-human gc chain, hybridoma ATCC HB-12107) (antibody, V domains shown)
VH: LQESGPGLVAPSQSLSITCTVSGFSLTSYGVHWVRQPPGKGLEWLGVIWAGGSTNYNSALMSRLNINRDNSKSQIFLKMNSLQTDDTAIYYCAREGSTVDSMDYWGQGTTVT
VL: DIVMTQSHKFMSTSVGDSITITCKASQDVTTAVAWYQQKPGQSPKLLIYWASTRHTGVPDRFTGSGSGTDYTLTISSVQAEDLALYYCQQHYITPWTFGGGTKLEI
notes: Used unconjugated and biotin-conjugated; also called CP.B8 mAb; mAb CP.B8

Source: patent US20020028202A1 (Biogen, published 2002)
